Experimental data published in patent US20210371461.

System: MePEG2-IEGR (TFA salt)

| Substance | Kcat (Vmax/[FXa]) | luminescence signal (RLU) from substrate cleavage, 80 nM enzyme | luminescence signal (RLU) from substrate cleavage, 52 nM enzyme |
| --- | --- | --- | --- |
| Factor Xa | Kcat=Vmax/[FXa]=1.05×10^14 s^-1 | A concentration of 80 nm FXa yielded a signal of 1.000.000 RLU |  |
| thrombin |  |  | 52 nM thrombin yielded ˜30.000 RLU |
